Data: patent publication US7662583B2, “Bioreactor containing cells expressing glycosyltransferase nucleic acids isolatable from Arabidopsis” (The University of York, priority 2003, dated 2010)

B1: UGT76E1: Arabidopsis recombinant glycosyltransferase (protein, UniProt Q9LTH3 1-453, looked up)
UDP-glycosyltransferase 76E1: MEELGVKRRIVLVPVPAQGHVTPIMQLGKALYSKGFSITVVLTQYNRVSSSKDFSDFHFLTIPGSLTESDLKNLGPFKFLFKLNQICEASFKQCIGQLLQEQGNDIACVVYDEYMYFSQAAVKEFQLPSVLFSTTSATAFVCRSVLSRVNAESFLLDMKDPKVSDKEFPGLHPLRYKDLPTSAFGPLESILKVYSETVNIRTASAVIINSTSCLESSSLAWLQKQLQVPVYPIGPLHIAASAPSSLLEEDRSCLEWLNKQKIGSVIYISLGSLALMETKDMLEMAWGLRNSNQPFLWVIRPGSIPGSEWTESLPEEFSRLVSERGYIVKWAPQIEVLRHPAVGGFWSHCGWNSTLESIGEGVPMICRPFTGDQKVNARYLERVWRIGVQLEGELDKGTVERAVERLIMDEEGAEMRKRVINLKEKLQASVKSRGSSFSSLDNFVNSLKMMNFM
B2: UGT73C6: Arabidopsis recombinant glycosyltransferase (protein, UniProt Q9ZQ95 1-495, looked up)
UDP-glycosyltransferase 73C6: MAFEKNNEPFPLHFVLFPFMAQGHMIPMVDIARLLAQRGVLITIVTTPHNAARFKNVLNRAIESGLPINLVQVKFPYQEAGLQEGQENMDLLTTMEQITSFFKAVNLLKEPVQNLIEEMSPRPSCLISDMCLSYTSEIAKKFKIPKILFHGMGCFCLLCVNVLRKNREILDNLKSDKEYFIVPYFPDRVEFTRPQVPVETYVPAGWKEILEDMVEADKTSYGVIVNSFQELEPAYAKDFKEARSGKAWTIGPVSLCNKVGVDKAERGNKSDIDQDECLEWLDSKEPGSVLYVCLGSICNLPLSQLLELGLGLEESQRPFIWVIRGWEKYKELVEWFSESGFEDRIQDRGLLIKGWSPQMLILSHPSVGGFLTHCGWNSTLEGITAGLPMLTWPLFADQFCNEKLVVQILKVGVSAEVKEVMKWGEEEKIGVLVDKEGVKKAVEELMGESDDAKERRRRAKELGESAHKAVEEGGSSHSNITFLLQDIMQLAQSNN
B3: UGT71D1: Arabidopsis recombinant glycosyltransferase (protein, UniProt O82383 1-467, looked up)
UDP-glycosyltransferase 71D1: MRNVELIFIPTPTVGHLVPFLEFARRLIEQDDRIRITILLMKLQGQSHLDTYVKSIASSQPFVRFIDVPELEEKPTLGSTQSVEAYVYDVIERNIPLVRNIVMDILTSLALDGVKVKGLVVDFFCLPMIDVAKDISLPFYVFLTTNSGFLAMMQYLADRHSRDTSVFVRNSEEMLSIPGFVNPVPANVLPSALFVEDGYDAYVKLAILFTKANGILVNSSFDIEPYSVNHFLQEQNYPSVYAVGPIFDLKAQPHPEQDLTRRDELMKWLDDQPEASVVFLCFGSMARLRGSLVKEIAHGLELCQYRFLWSLRKEEVTKDDLPEGFLDRVDGRGMICGWSPQVEILAHKAVGGFVSHCGWNSIVESLWFGVPIVTWPMYAEQQLNAFLMVKELKLAVELKLDYRVHSDEIVNANEIETAIRYVMDTDNNVVRKRVMDISQMIQRATKNGGSSFAAIEKFIYDVIGIKP
B4: UGT88A1: Arabidopsis recombinant glycosyltransferase, FIG. 4 (protein, listed as Arabidopsis thaliana)
chain: MGEEAIVLYPAPPIGHLVSMVELGKTILSKNPSLSIHIILVPPPYQPESTATYISSVSSSFPSITFHHLPAVTPYSSSSTSRHHHESLLLEILCFSNPSVHRTLFSLSRNFNVRAMIIDFFCTAVLDITADFTFPVYFFYTSGAACLAFSFYLPTIDETTPGKNLKDIPTVHIPGVPPMKGSDMPKAVLERDDEVYDVFIMFGKQLSKSSGIIINTFDALENRAIKAITEELCFRNIYPIGPLIVNGRIEDRNDNKAVSCLNWLDSQPEKSVVFLCFGSLGLFSKEQVIEIAVGLEKSGQRFLWVVRNPPELEKTELDLKSLLPEGFLSRTEDKGMVVKSWAPQVPVLNHKAVGGFVTHCGWNSILEAVCAGVPMVAWPLYAEQRFNRVMIVDEIKIAISMNESETGFVSSTEVEKRVQEIIGECPVRERTMAMKNAAELALTETGSSHTALTTLLQSWSPK
B5: UGT71E8: Arabidopsis recombinant glycosyltransferase as printed in Table 1A; probably UGT71B8 of FIG. 1 (protein, UniProt Q9LSY4 1-480, looked up)
UDP-glycosyltransferase 71B8: MNKFALVFVPFPILGHLKSTAEMAKLLVEQETRLSISIIILPLLSGDDVSASAYISALSAASNDRLHYEVISDGDQPTVGLHVDNHIPMVKRTVAKLVDDYSRRPDSPRLAGLVVDMFCISVIDVANEVSVPCYLFYTSNVGILALGLHIQMLFDKKEYSVSETDFEDSEVVLDVPSLTCPYPVKCLPYGLATKEWLPMYLNQGRRFREMKGILVNTFAELEPYALESLHSSGDTPRAYPVGPLLHLENHVDGSKDEKGSDILRWLDEQPPKSVVFLCFGSIGGFNEEQAREMAIALERSGHRFLWSLRRASRDIDKELPGEFKNLEEILPEGFFDRTKDKGKVIGWAPQVAVLAKPAIGGFVTHCGWNSILESLWFGVPIAPWPLYAEQKFNAFVMVEELGLAVKIRKYWRGDQLVGTATVIVTAEEIERGIRCLMEQDSDVRNRVKEMSKKCHMALKDGGSSQSALKLFIQDVTKYIA
B6: UGT71C2: Arabidopsis recombinant glycosyltransferase (protein, UniProt O82382 1-474, looked up)
UDP-glycosyltransferase 71C2: MAKQQEAELIFIPFPIPGHILATIELAKRLISHQPSRIHTITILHWSLPFLPQSDTIAFLKSLIETESRIRLITLPDVQNPPPMELFVKASESYILEYVKKMVPLVRNALSTLLSSRDESDSVHVAGLVLDFFCVPLIDVGNEFNLPSYIFLTCSASFLGMMKYLLERNRETKPELNRSSDEETISVPGFVNSVPVKVLPPGLFTTESYEAWVEMAERFPEAKGILVNSFESLERNAFDYFDRRPDNYPPVYPIGPILCSNDRPNLDLSERDRILKWLDDQPESSVVFLCFGSLKSLAASQIKEIAQALELVGIRFLWSIRTDPKEYASPNEILPDGFMNRVMGLGLVCGWAPQVEILAHKAIGGFVSHCGWNSILESLRFGVPIATWPMYAEQQLNAFTIVKELGLALEMRLDYVSEYGEIVKADEIAGAVRSLMDGEDVPRRKLKEIAEAGKEAVMDGGSSFVAVKRFIDGL
B7: UGT73B5: Arabidopsis recombinant glycosyltransferase (protein, UniProt Q9ZQG4 1-484, looked up)
UDP-glycosyltransferase 73B5: MNREVSERIHILFFPFMAQGHMIPILDMAKLFSRRGAKSTLLTTPINAKIFEKPIEAFKNQNPDLEIGIKIFNFPCVELGLPEGCENADFINSYQKSDSGDLFLKFLFSTKYMKQQLESFIETTKPSALVADMFFPWATESAEKLGVPRLVFHGTSFFSLCCSYNMRIHKPHKKVATSSTPFVIPGLPGDIVITEDQANVAKEETPMGKFMKEVRESETNSFGVLVNSFYELESAYADFYRSFVAKRAWHIGPLSLSNRELGEKARRGKKANIDEQECLKWLDSKTPGSVVYLSFGSGTNFTNDQLLEIAFGLEGSGQSFIWVVRKNENQGDNEEWLPEGFKERTTGKGLIIPGWAPQVLILDHKAIGGFVTHCGWNSAIEGIAAGLPMVTWPMGAEQFYNEKLLTKVLRIGVNVGATELVKKGKLISRAQVEKAVREVIGGEKAEERRLWAKKLGEMAKAAVEEGGSSYNDVNKFMEELNGRK

Experiment: UGT enzyme reaction with quercetin (recombinant UGTs, HPLC)
Assay type: biochemical, Arabidopsis
Conditions: quercetin glucosylated at 3-OH; 0.5 mM quercetin, 5 mM UDP-glucose, 30° C.
Method: The assay mix (200 μl) contained 2 μg of recombinant protein, 100 mM Tris-HCl, pH 7.0, 5 mM UDP-glucose 1.4 mM 2-mercaptoethanol, and 0.5 mM of quercetin. The reaction was carried out at 30° C. for 1 h, and was quick-frozen and stored at −20° C. prior to the reverse-phase HPLC analysis
Reverse-phase HPLC (SpectraSYSTEM HPLC systems and UV6000LP Photodiode Array Detector, ThermoQuest) analysis was carried using a Columbus 5μ C18 column (250×4.60 mm, PHENOMENEX). Quercetin glucosides were separated from the aglycone by a linear gradient of 10-75% acetonitrile in H2O (all solution contained 0.1% trifluoroacetic acid) at 1 ml/mm over 20 mm and monitored at 370 nm. Cytokinin glucosides were separated from their aglycone by a liner gradient of 10-100% methanol in H2O (for N6-isopentenyladenine (iP), N6-benzyladenine and kinetin) or 10-60% methanol in H2O (for trans-zeatin and dihydrozeatin) at 1 ml/min over 20 mm. All solution contained 0.25% acetic acid and 0.04% triethylamine, trifluoroacetic acid. The separation was monitored at 206 nm and 252 nm. The identity of the products was confirmed by comparison with authentic gluco sides.
The activity of Arabidopsis recombinant UGTs towards quercetin was determined using the platform developed previously^15.

Molecule | Specific activity (nkat/mg protein) 3-O-glc
B1 | 0.02 nkat/mg protein
B2 | 0.11 nkat/mg protein
B3 | 4.19 nkat/mg protein
B4 | 0.41 nkat/mg protein
B5 | 0.31 nkat/mg protein
B6 | 0.16 nkat/mg protein
B7 | 11.58 nkat/mg protein

Same assay, conditions: quercetin glucosylated at 3′-OH; 0.5 mM quercetin, 5 mM UDP-glucose, 30° C.

Molecule | Specific activity (nkat/mg protein) 3′-O-glc
B1 | — (Activity lower than 0.02 nkat/mg protein has been considered as trace activity and is not shown in the Table.)
B2 | — (Activity lower than 0.02 nkat/mg protein has been considered as trace activity and is not shown in the Table.)
B3 | — (Activity lower than 0.02 nkat/mg protein has been considered as trace activity and is not shown in the Table.)
B4 | 0.19 nkat/mg protein
B5 | — (Activity lower than 0.02 nkat/mg protein has been considered as trace activity and is not shown in the Table.)
B6 | 0.03 nkat/mg protein
B7 | — (Activity lower than 0.02 nkat/mg protein has been considered as trace activity and is not shown in the Table.)

Same assay, conditions: quercetin glucosylated at 4′-OH; 0.5 mM quercetin, 5 mM UDP-glucose, 30° C.

Molecule | Specific activity (nkat/mg protein) 4′-O-glc
B1 | — (Activity lower than 0.02 nkat/mg protein has been considered as trace activity and is not shown in the Table.)
B2 | 0.16 nkat/mg protein
B3 | — (Activity lower than 0.02 nkat/mg protein has been considered as trace activity and is not shown in the Table.)
B4 | 0.76 nkat/mg protein
B5 | 0.25 nkat/mg protein
B6 | — (Activity lower than 0.02 nkat/mg protein has been considered as trace activity and is not shown in the Table.)
B7 | — (Activity lower than 0.02 nkat/mg protein has been considered as trace activity and is not shown in the Table.)

Same assay, conditions: quercetin glucosylated at 7-OH; 0.5 mM quercetin, 5 mM UDP-glucose, 30° C.

Molecule | Specific activity (nkat/mg protein) 7-O-glc
B1 | 0.08 nkat/mg protein
B2 | 0.14 nkat/mg protein
B3 | — (Activity lower than 0.02 nkat/mg protein has been considered as trace activity and is not shown in the Table.)
B4 | 0.19 nkat/mg protein
B5 | — (Activity lower than 0.02 nkat/mg protein has been considered as trace activity and is not shown in the Table.)
B6 | 0.24 nkat/mg protein
B7 | — (Activity lower than 0.02 nkat/mg protein has been considered as trace activity and is not shown in the Table.)
